In this experiment the target is HIV-1 envelope glycoprotein gp120 (UniProt P04578). The experiment can be described thus: binding assay (method not named in legend). Conditions: read off a plot; for other: relative affinity (hCD4-M = 1): parent: est. 0.63.

Take “hCD4-M, human CD4 mimetic peptide (residues 22-64), N-terminal Cys form F43A; R58A; R59A”: the ratio to parent (parent: 1) turned out to be 0.24. As to “mCD4-M, murine CD4 mimetic peptide (residues 22-66) I23C; E65C”, the other: relative affinity (hCD4-M = 1) is 4. On to “mCD4-M, murine CD4 mimetic peptide (residues 22-66) V44A; K60A; K61A”, for which the other: relative affinity (hCD4-M = 1) was found to be 0.14.

For the origin of these results see article PMC3270550.
